This note sets out measurements from patent US9114144B2, “Kallikrein-inhibitor therapies” (Dyax Corp., priority 2002, dated 2015).

Positions of bridges follow the written chain, without caps; N, C: chain ends. No end group written: not given here.

The test system of one series is kallikrein. The experiment in a line: Kallikrein inhibitory activity in plasma and CSF of non-ischemic mice after iv treatment. The format is in vivo. The procedure:
[…] analysis was performed to determine whether DX-88 was able to cross the blood-brain barrier. Non-ischemic mice were treated iv with saline or DX-88 (10 μg/mouse or 30 μg/mouse) and plasma was drawn 30 or 60 min after administration. Thirty minutes after DX-88 treatment, plasma kallikrein inhibitory activity was 2 and 4 times higher in mice treated with […], respectively.
The same dose of DX-88 was given at the beginning of ischemic period. Twenty four hours after ischemia, neurological deficits and infarct size were evaluated.

In a further series the target is human plasma kallikrein (Homo sapiens, UniProt P03952). The series is described as follows: Kallikrein inhibition assay, Ki,app. It counts as biochemical. As to conditions: fold higher than aprotinin. The procedure:
The potency assay of KI polypeptides, such as PEP-1, described herein was a kinetic test, which measured fluorescence generation following the kallikrein-mediated cleavage of a substrate, […] amino methyl coumarin. A known amount of kallikrein was incubated with buffer, with a serially diluted KI polypeptide reference standard, or serially diluted KI polypeptide test samples. Each sample was run in triplicate. The substrate solution was added, and the plate read immediately using an excitation wavelength of 360 nm and an emission wavelength of 460 nm. At least two each of the reference standard and sample curves were required to have an R-squared value of ≧0.95 to be considered valid.

Sequence of human plasma kallikrein (P03952 20-390 partner limits assumed): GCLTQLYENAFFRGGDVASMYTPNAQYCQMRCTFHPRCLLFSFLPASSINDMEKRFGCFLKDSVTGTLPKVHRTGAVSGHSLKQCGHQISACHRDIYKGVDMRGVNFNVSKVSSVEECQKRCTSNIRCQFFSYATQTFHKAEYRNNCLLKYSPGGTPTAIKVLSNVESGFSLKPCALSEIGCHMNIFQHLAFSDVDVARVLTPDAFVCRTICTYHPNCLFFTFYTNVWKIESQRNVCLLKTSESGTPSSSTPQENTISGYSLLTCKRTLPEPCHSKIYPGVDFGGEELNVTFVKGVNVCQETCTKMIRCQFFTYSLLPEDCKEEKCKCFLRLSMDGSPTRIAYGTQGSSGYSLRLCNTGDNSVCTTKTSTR
Sequence of human plasma kallikrein (P03952 391-638 limits assumed): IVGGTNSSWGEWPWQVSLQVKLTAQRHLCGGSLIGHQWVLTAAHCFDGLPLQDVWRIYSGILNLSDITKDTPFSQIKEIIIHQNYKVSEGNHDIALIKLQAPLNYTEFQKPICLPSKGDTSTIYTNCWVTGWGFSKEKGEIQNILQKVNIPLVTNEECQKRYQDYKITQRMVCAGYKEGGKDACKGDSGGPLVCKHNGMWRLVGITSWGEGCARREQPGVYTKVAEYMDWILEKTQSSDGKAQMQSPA

As to “EAMHSFCAFKADDGPCRAAHPRWFFNIFTRQCEEFIYGGCEGNQNRFESLEECKKMCTRD (disulfide 7-57, 16-40, 32-53) [PEP-1]”, in the series on kallikrein (30 μg iv, CSF drawn 30 or 60 min after administration), the “inhibitory activity in cerebral spinal fluid (CSF)” value is given as “marked inhibitory activity”. The “inhibitory activity in CSF” value with kallikrein (30 μg/mouse iv, thirty minutes after treatment) is given as “marked inhibitory activity”. Moreover, the “crossing of the blood-brain barrier” value in the series with kallikrein (intact blood-brain barrier, active form) is “can cross rapidly the intact blood-brain barrier”. Also, the “affinity (Ki) for kallikrein relative to aprotinin” value is recorded as 1000 times at human plasma kallikrein and “at least 1000 times” at human plasma kallikrein (listed as DX-88).
